Test results taken from article PMC6325244, “Regulation of the Peptidoglycan Polymerase Activity of PBP1b by Antagonist Actions of the Core Divisome Proteins FtsBLQ and FtsN” (mBio, 2019).

T1: PBP1b (E. coli, UniProt P02919 1-844, fluorescent ampicillin label added after elution)
T1 construct: PBP1b, E. coli, class A PBP, bifunctional glycosyltransferase/transpeptidase; Untagged as prey of HisFtsBLQ, HisFtsBL, HisFtsQ and HisFtsW; also called untagged PBP1b; source: E. coli C43 (DE3) or Lemo21 (DE3), coexpressed from Duet vectors, in detergent extract of membranes
T1 sequence (looked up): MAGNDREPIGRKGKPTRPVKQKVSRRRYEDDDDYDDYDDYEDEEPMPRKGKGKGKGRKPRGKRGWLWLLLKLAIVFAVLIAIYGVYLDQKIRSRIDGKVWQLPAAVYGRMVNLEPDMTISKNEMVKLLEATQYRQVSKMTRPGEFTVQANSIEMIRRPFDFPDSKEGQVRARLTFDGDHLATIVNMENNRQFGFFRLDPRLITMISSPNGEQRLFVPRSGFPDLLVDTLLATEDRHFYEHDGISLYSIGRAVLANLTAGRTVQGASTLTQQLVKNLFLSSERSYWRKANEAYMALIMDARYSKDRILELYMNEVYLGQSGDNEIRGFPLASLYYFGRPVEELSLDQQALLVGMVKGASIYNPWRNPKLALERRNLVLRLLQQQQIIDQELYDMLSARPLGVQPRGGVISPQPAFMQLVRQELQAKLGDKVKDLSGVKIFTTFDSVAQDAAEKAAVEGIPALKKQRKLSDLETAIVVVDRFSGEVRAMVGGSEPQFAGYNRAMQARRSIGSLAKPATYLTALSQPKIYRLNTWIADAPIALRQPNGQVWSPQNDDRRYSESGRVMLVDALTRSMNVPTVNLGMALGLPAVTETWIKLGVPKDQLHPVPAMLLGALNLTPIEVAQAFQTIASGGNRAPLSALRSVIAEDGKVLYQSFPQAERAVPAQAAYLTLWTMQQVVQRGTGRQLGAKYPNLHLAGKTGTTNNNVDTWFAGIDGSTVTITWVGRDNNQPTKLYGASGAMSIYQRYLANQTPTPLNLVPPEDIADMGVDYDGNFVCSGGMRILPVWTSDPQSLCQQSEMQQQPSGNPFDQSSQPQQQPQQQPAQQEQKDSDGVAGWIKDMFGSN


Experiments:
[1] = molecular target: T1, PBP1b
[2] = molecular target: T1, PBP1b; assay: pull-down + SEC; PBP1b copurified with FtsN or FtsN W83L on a nickel column followed by gel filtration; SDS-PAGE, Coomassie, band amounts by Image Quant TL

| Molecule | fold decrease in stimulation of the GTase activity of PBP1b (continuous fluorescence assay), initial velocity against wild-type FtsN [1] | PBP1b/FtsN ratio in the copurified complex after gel filtration (parts PBP1b of 100 (PBP1b/FtsN 20/80)) [2] | PBP1b/FtsN ratio in the copurified complex after gel filtration ([2]; partners not purified) |
| --- | --- | --- | --- |
| FtsN^W83L (from UniProt P29131 1-319) (natural protein) | 2 fold | 20 |  |
| FtsN (natural protein, E. coli, UniProt P29131 1-319, looked up, FtsN, E. coli, bitopic membrane protein; also called FtsN^WT; FtsNWT; source: E. coli C43 (DE3) or Lemo21 (DE3), coexpressed from Duet vectors, in detergent extract of membranes; also purified) MAQRDYVRRSQPAPSRRKKSTSRKKQRNLPAVSPAMVAIAAAVLVTFIGGLYFITHHKKEESETLQSQKVTGNGLPPKPEERWRYIKELESRQPGVRAPTEPSAGGEVKTPEQLTPEQRQLLEQMQADMRQQPTQLVEVPWNEQTPEQRQQTLQRQRQAQQLAEQQRLAQQSRTTEQSWQQQTRTSQAAPVQAQPRQSKPASSQQPYQDLLQTPAHTTAQSKPQQAAPVARAADAPKPTAEKKDERRWMVQCGSFRGAEQAETVRAQLAFEGFDSKITTNNGWNRVVIGPVKGKENADSTLNRLKMAGHTNCIRLAAGG |  |  | ~40 parts PBP1b of 100 (PBP1b/FtsN 40/60) |
